Earlier results on one substance are cited in PMC7689933.

The data set addresses His15 (UniProt position 33, AAMKRHGLDNY). The data set is described as follows: NMR. The conditions noted are these: not stated (presumably native, ligand-free lysozyme).

“Lysozyme C (hen egg white lysozyme) (Gallus gallus)”: the pKa is reported as 5.35 ± 0.07.

Usually pKa stands for the pH at which an ionisable group is half protonated.
